Results: US20130217572A1, “SPECIFIC DELIVERY OF AGROCHEMICALS” (VRIJE UNIVERSITEIT BRUSSEL, priority 2010, published 2013)
Blank lines part the entries; values can stand above or below the molecule they belong to.

How the values were obtained:
potato lectin (Sigma) [1] = target: T1, potato lectin (Sigma) (potato, UniProt Q9S8M0 23-323); assay: microcapsule retention; L: amine capsules, BS3 two-step, 0.1 ug VHH/cm2; potato lectin coat 1 ug/ml; 10% coverage
T1 construct: Bought glycoprotein, coated on ELISA plates
T1 sequence (looked up): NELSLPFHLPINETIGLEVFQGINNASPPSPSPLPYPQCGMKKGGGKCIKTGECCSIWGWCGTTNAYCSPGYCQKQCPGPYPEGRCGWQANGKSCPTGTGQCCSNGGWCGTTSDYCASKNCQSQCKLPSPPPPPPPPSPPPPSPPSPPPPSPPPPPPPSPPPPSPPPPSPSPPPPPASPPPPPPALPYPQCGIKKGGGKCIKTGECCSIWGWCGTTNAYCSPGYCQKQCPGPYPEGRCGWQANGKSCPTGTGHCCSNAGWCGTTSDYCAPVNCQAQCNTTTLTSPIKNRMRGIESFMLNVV

potato lectin (Sigma) [2] = target: T1, potato lectin (Sigma); assay: microcapsule retention; K: amine capsules, BS3 two-step, 1 ug VHH/cm2; potato lectin coat 1 ug/ml; 100% coverage
potato lectin (Sigma) [3] = target: T1, potato lectin (Sigma); assay: microcapsule retention; G: amine capsules, BS3 one-step, 1 ug VHH/cm2; potato lectin coat 10 ug/ml; 10% coverage
potato lectin (Sigma) [4] = target: T1, potato lectin (Sigma); assay: microcapsule retention; K: amine capsules, BS3 two-step, 1 ug VHH/cm2; potato lectin coat 100 ug/ml; 100% coverage
potato lectin (Sigma) [5] = target: T1, potato lectin (Sigma); assay: microcapsule retention; C: carboxyl capsules, EDC/Sulfo-NHS, 1 ug VHH/cm2; potato lectin coat 100 ug/ml; 10% coverage
potato lectin (Sigma) [6] = target: T1, potato lectin (Sigma); assay: microcapsule retention; H: amine capsules, BS3 one-step, 0.1 ug VHH/cm2; potato lectin coat 100 ug/ml; 100% coverage
potato lectin (Sigma) [7] = target: T1, potato lectin (Sigma); assay: microcapsule retention; L: amine capsules, BS3 two-step, 0.1 ug VHH/cm2; potato lectin coat 100 ug/ml; 10% coverage
potato lectin (Sigma) [8] = target: T1, potato lectin (Sigma); assay: microcapsule retention; C: carboxyl capsules, EDC/Sulfo-NHS, 1 ug VHH/cm2; potato lectin coat 1 ug/ml; 10% coverage
unrelated antigens [9] = assay: VHH-coupled Uvitex OB microcapsules retained on wells coated with unrelated antigen; 20% surface coverage
potato lectin = target: T2, potato lectin (Solanum tuberosum, UniProt Q9S8M0); assay: VHH binding to potato lectin in ELISA; conditions: blank wells; VHH 3 μg/ml
T2 sequence (Q9S8M0 23-323): T1 sequence (looked up)
Method: ELISA plates (Maxisorp, Nunc) coated with 100 μl per well 100 μg/ml potato lectin (Sigma) in PBS were coated at 4° C. overnight and coating was continued at room temperature for 1 hour on the next day. Plates were washed three times with PBS/0.05%-TWEEN®-20 and blocked with 5% skimmed milk in PBS for 1 hour. VHH (3 μg/ml) were transferred to the potato lectin-coated plates and VHH antibody fragments were allowed to bind for 1 hour at room temperature. Bound VHH were detected with sequential incubations with monoclonal mouse anti-histidine antibodies (Abd Serotec) and rabbit anti-mouse IgG whole molecule antibodies conjugated with alkaline phosphatase (RaM/AP) (Sigma) in 1% MPBS/0.05%-TWEEN®-20. Unbound antibodies were removed by washing three times with PBS/0.05%-TWEEN®-20 after each antibody incubation. The plates were washed an additional two times with PBS and 100 μl pNPP disodium hexahydrate substrate (Sigma) was added to each well and the absorbance at 405 nm was measured (see Table 2).

potato lectin (Sigma) [10] = target: T1, potato lectin (Sigma); assay: VHH-coupled Uvitex microcapsules on potato lectin-coated wells; 25-fold less microcapsules applied
Method: An ELISA-like assay was performed using high bind half area microplates (Greiner Bio-One) coated with 5 μg/well potato lectin. Control wells included blank wells or wells coated with unrelated antigens. Plates were washed three times with PBS with 0.05%-TWEEN®-20 and blocked with 5% skimmed milk in PBS for 1 to 2 hours. VHH-coupled Uvitex-containing microcapsules were diluted to appropriate densities in 1% skimmed milk in PBS with 0.05%-TWEEN®-20. Five-fold serial dilution series were prepared and allowed to bind to the surface to compare binding of microcapsules coupled with monovalent or bivalent VHH. Microcapsules were added to the antigen-coated or control wells and allowed to bind for 1 hour. Unbound microcapsules were removed by washing five times with PBS with 0.05%-TWEEN®-20. The bottoms of ELISA plate wells were analyzed for bound microcapsules on a macrozoom microscope system (Nikon). Microcapsules were counted using Volocity image analysis software (Perkin Elmer). A DAPI filter was used to visualize Uvitex microcapsules.
The surface area of microcapsules with coupled bivalent VHH was 15-fold above the surface area of blank microcapsules applied at this microcapsule density while the surface area of microcapsules with monovalent VHH was only six-fold above the surface area of blank microcapsules applied at this microcapsule density. […]

potato leaf discs = assay: VHH binding at different temperatures; set-up: species or system potato (variety Désirée); conditions: 5 μg/ml in PBS; temperature range from 4° C. to 55° C.
Method: In order to test applicability of VHH as binders for greenhouse or field applications where binding supposedly may occur at different and sometimes even extreme temperatures, a leaf dip VHH binding experiment at different temperatures was used. Temperatures used were 4° C., room temperature, 37° C., 55° C., or 70° C. ø 8 mm potato leaf discs (variety Désirée) were cut using a puncher tool. The leaf discs were equilibrated to different temperatures by washing three times with PBS at different temperatures. Hexahistidine-tagged VHH were diluted to 5 μg/ml in PBS at different temperatures, added to the corresponding equilibrated leaf discs, and binding of VHH was allowed for 1 hour at different temperatures. After incubation with VHH, leaf discs were washed five times with PBS at room temperature. Bound VHH were detected by incubation with monoclonal mouse anti-histidine antibodies directly conjugated with Alexa-488 fluorescent dye (Abd Serotec) in PBS for 1 hour at room temperature. Unbound anti-histidine antibodies were removed by washing five times with PBS at room temperature. Leaf discs were analyzed for bound VHH with microscopy. […] Please note that leaf discs severely suffer when submerged in PBS at 70° C. for 1 hour but that binding of VHH was still detected.

unrelated antigens [11] = assay: VHH-coupled Uvitex OB microcapsules retained on wells coated with unrelated antigen; 4% surface coverage

microcapsule counts (microcapsules) (potato lectin (Sigma) [1]): 116
microcapsule counts (microcapsules) (potato lectin (Sigma) [2]): 617
microcapsule counts (microcapsules) (potato lectin (Sigma) [3]): 13
microcapsule counts (microcapsules) (potato lectin (Sigma) [4]): 866
microcapsule counts (microcapsules) (potato lectin (Sigma) [5]): 55
microcapsule counts (microcapsules) (potato lectin (Sigma) [6]): 622
microcapsule counts (microcapsules) (potato lectin (Sigma) [7]): 248
microcapsule counts (microcapsules) (potato lectin (Sigma) [8]): 49
Molecule: Control VHH

B1: VHH 3E6 (VHH)
VHH: QVQLQESGGGLVQPGGTLSLSCAASGFNVRWYGMGWFRQAPGKEREGVACISALQETTAYADSVKGRFTLSRDNPKNTLSLQMNNLQPEDTGVYYCATTDCDDSSRMTYTSYLGQGTQVTVSS
notes: also called Monovalent VHH 3E6
area of bound microcapsules (unrelated antigens [9]): 47.9
absorbance at 405 nm (potato lectin): 0.067
fold of surface area above blank microcapsules (potato lectin (Sigma) [10]): 6 fold
binding to leaf discs at different temperatures (potato leaf discs): showed detectable binding
area of bound microcapsules (unrelated antigens [11]): 23.5
